Test results from patent US6897295 (MOCHIDA PHARMACEUTICAL, dated 2005).
One block for each binder: values may come before it.

Assays:
[1] = target: T1, rat Fas ligand (encoded by clone pTN24-15) (rat, UniProt P36940 1-278); assay: flow cytometry on d10S cells, phycoerythrin-labeled streptoavidin
T1 construct: Full-length type II membrane protein of 278 residues; It stood on d10S cells and on COS-7 cells transfected with pTN24-15; It was also used as NP-40 lysate of these cells (immunoprecipitation) and as protein purified from the d10S-12 membrane fraction (about 40 kD); also called Fas ligand on the d10S cells; COS/pTN24-15
T1 sequence: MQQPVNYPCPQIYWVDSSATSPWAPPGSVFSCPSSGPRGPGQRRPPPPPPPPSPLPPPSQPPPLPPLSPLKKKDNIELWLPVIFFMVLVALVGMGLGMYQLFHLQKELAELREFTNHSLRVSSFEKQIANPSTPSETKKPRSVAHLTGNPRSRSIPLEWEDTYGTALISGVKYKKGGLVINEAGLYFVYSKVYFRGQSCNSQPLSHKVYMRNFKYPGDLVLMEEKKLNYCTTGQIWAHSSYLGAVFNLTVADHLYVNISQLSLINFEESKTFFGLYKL
Experimental: PC60-d10S cells (to be referred to as "d10S" hereinafter; Rouvier E. et al., J. Exp. Med., vol. 177, pp. 195–200, 1993) were washed with a staining solution (phosphate-buffered saline (to be referred to as "PBS" hereinafter) containing 2% FCS and 0.02% NaN₃). About 1 ×10^6 of the cells were suspended in 50 μl of the staining solution supplemented with 5 μg/ml of rat anti-mouse FcγRII blocking antibody (Pharmingen). This suspension was dispensed into wells of a 96 well plate and incubated for 10 minutes on an ice bath. A 20 μg/ml solution of the biotinylated mFas-Fc was dispensed into wells of the resulting plate in 50 μl portions, and the incubation was continued for additional 30 minutes on an ice bath. […]
After washing the cells with the staining solution, cytometric analysis was carried out using FACScan (Becton Dickinson). As the result, a slight shift in the fluorescence intensity was observed which confirmed that said cells were stained with the biotinylated mFas-Fc (see FIG. 1(A). Control was expressed as an open area, and staining before 4 hours of treatment with PMA and ionomycin as a stippled area and staining after 4 hours of treatment with PMA and ionomycin as a closed area.

[2] = target: T2, mouse Fas antigen on W4 cells (mouse, UniProt P25446 22-327); assay: concluded from cytotoxicity on W4 cells and its inhibition by mFas-Fc
T2 construct: whole, on cells; also called Fas antigen-expressing W4 cells
T2 sequence (looked up): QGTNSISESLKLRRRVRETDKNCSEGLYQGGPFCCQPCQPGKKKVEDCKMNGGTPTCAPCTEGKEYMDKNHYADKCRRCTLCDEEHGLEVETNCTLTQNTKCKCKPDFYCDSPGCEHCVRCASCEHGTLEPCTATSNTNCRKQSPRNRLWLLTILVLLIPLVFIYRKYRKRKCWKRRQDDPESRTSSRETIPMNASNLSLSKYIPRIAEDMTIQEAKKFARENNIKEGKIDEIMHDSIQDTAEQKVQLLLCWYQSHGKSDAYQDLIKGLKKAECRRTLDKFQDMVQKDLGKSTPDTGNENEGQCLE
Experimental: Cytotoxic activity of recombinant cells was measured in the same manner as described in Inventive Example 8, using the transformed COS cells (COS/pEF-MFLW4F) obtained in the above step (2) as the effector cells and 10^6 cells-of WR19L or W4 as the target cells. The W4 is a transformant which acquired mouse Fas antigen-expressing ability through the transformation of mouse WR19L cells. That is, 10^6 cells of WR19L or W4 were labeled with ^51Cr by culturing the cells at 37° C. for 2 hours in RPMI 1640 medium containing 20 μCi of (^51Cr) sodium chromate (Amersham).
The thus ^51Cr-labeled cells (1×10^4) were mixed with COS/pEF-MFLW4F cells at various mixing ratios and cultured at 37° C. for 4 hours, subsequently measuring cytotoxic activity using released ^51Cr as an index. […] In addition, the cytotoxicity of COS/pEF-MFLW4F cells was inhibited by the addition of 20 μg/ml of the chimera protein containing the extracellular domain of mouse Fas antigen (mFas-Fc) prepared in Inventive Example 1, but was not inhibited by the addition of the soluble type human TNF receptor (hTNFRβ-Fc).

[3] = target: T3, human Fas antigen on WC8A / WC8 cells (human, UniProt P25445 26-335); assay: concluded from cytotoxicity of the culture supernatant on cells expressing human Fas antigen
T3 construct: whole, on cells
T3 sequence (looked up): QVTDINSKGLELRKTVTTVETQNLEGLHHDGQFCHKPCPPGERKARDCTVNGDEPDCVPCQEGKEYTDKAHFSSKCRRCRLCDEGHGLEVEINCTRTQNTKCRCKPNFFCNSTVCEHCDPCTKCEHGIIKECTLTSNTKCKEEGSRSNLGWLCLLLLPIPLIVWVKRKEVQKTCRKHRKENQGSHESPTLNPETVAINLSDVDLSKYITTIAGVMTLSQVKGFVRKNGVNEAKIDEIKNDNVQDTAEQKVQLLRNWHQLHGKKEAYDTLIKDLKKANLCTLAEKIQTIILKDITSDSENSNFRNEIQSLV

[4] = target: T3, human Fas antigen on WC8A / WC8 cells; assay: concluded from cytotoxicity on WC8A cells and its inhibition by hFas-Fc and mFas-Fc
Experimental: Cytotoxic activity of recombinant cells was measured in the same manner as described in Inventive Example 8, using the COS-7 cells transformed in the above step (2) as the effector cells and 10^6 cells of WR19L or WC8A as the target cells. The WC8A is a transformant which acquired human Fas antigen-expressing ability through the transformation of mouse WR19L cells (Itoh N. et al., *J. Immunol.*, vol. 151, pp. 621–627, 1993).
The thus ^51Cr-labeled cells (1 ×10^4) were mixed with COS/pEX-hFL1 cells at various mixing ratios and cultured at 37° C. for 4 hours, subsequently measuring cytotoxic activity using released ^51Cr as an index.

binding result [1]: binds
B1: chimera protein of the extracellular domain of mouse Fas (mFas) antigen and the Fc region of human IgG1 (hIgG1) (Fc fusion, UniProt P25446 22-169, looked up)
chain: QGTNSISESLKLRRRVRETDKNCSEGLYQGGPFCCQPCQPGKKKVEDCKMNGGTPTCAPCTEGKEYMDKNHYADKCRRCTLCDEEHGLEVETNCTLTQNTKCKCKPDFYCDSPGCEHCVRCASCEHGTLEPCTATSNTNCRKQSPRNR
modifications: biotinylated with NHS-LC-biotin in the flow cytometry; unlabelled in the other assays
notes: extracellular domain; Made from plasmid pFas-FcII in COS-7 or BTS-1 cells; also called mFas-Fc; biotinylated mFas-Fc; not shown: human IgG1 heavy chain constant region: hinge, CH2 and CH3 domains

B2: mouse Fas ligand (encoded by pEF-MFLW4) (ligand)
chain: MQQPMNYPCPQIFWVDSSATSSWAPPGSVFPCPSCGPRGPDQRRPPPPPPPVSPLPPPSQPLPLPPLTPLKKKDHNTNLWLPVVFFMVLVALVGMGLGMYQLFHLQKELAELREFTNQSLKVSSFEKQIANPSTPSEKKEPRSVAHLTGNPHSRSIPLEWEDTYGTALISGVKYKKGGLVINETGLYFVYSKVYFRGQSCNNQPLNHKVYMRNSKYPEDLVLMEEKRLNYCTTGQIWAHSSYLGAVFNLTSADHLYVNISQLSLINFEESKTFFGLYKL
notes: Full-length protein of 279 residues on transfected COS cells; In the western blots it stood as reduced SDS extract of these cells; also called COS/pEF-MFLW4F
binding result [2]: binds

B3: extracellular domain of the human Fas ligand secreted by transformant COS-1/pM1070 (ligand)
chain: QLFHLQKELAELRESTSQMHTASSLEKQIGHPSPPPEKKELRKVAHLTGKSNSRSMPLEWEDTYGIVLLSGVKYKKGGLVINETGLYFVYSKVYFRGQSCNNLPLSHKVYMRNSKYPQDLVMMEGKMMSYCTTGQMWARSSYLGAVFNLTSADHLYVNVSELSLVNFEESQTFFGLYKL
notes: Expressed behind the signal peptide of the human Fas antigen, which is not counted here; Tested as culture supernatant; also called culture supernatant of COS-1/pM1070
binding result [3]: binds

binding result [1]: no binding
B4: chimera protein of TNF receptor beta and Fc region of human IgG1 (Fc fusion, UniProt P19438 30-211, looked up)
chain: LVPHLGDREKRDSVCPQGKYIHPQNNSICCTKCHKGTYLYNDCPGPGQDTDCRECESGSFTASENHLRHCLSCSKCRKEMGQVEISSCTVDRDTVCGCRKNQYRHYWSENLFQCFNCSLCLNGTVHLSCQEKQNTVCTCHAGFFLRENECVSCSNCKKSLECTKLCLPQIENVKGTEDSGTT
modifications: biotinylated with NHS-LC-biotin in the flow cytometry; unlabelled in the cytotoxicity assays
notes: extracellular domain; Control fusion protein; also called hTNFRβ-Fc; soluble type human TNF receptor; not shown: human IgG1 Fc region (hinge, CH2, CH3, as in pFas-FcII)

B5: human Fas ligand (encoded by pEX-hFL1) (ligand)
chain: MQQPFNYPYPQIYWVDSSASSPWAPPGTVLPCPTSVPRRPGQRRPPPPPPPPPLPPPPPPPPLPPLPLPPLKKRGNHSTGLCLLVMFFMVLVALVGLGLGMFQLFHLQKELAELRESTSQMHTASSLEKQIGHPSPPPEKKELRKVAHLTGKSNSRSMPLEWEDTYGIVLLSGVKYKKGGLVINETGLYFVYSKVYFRGQSCNNLPLSHKVYMRNSKYPQDLVMMEGKMMSYCTTGQMWARSSYLGAVFNLTSADHLYVNVSELSLVNFEESQTFFGLYKL
notes: Full-length protein on COS-7 cells (COS/pEX-hFL1) or FDC-P1 cells (FLh1); In the western blots it stood as reduced SDS extract of the transfected COS cells; also called COS/pEX-hFL1; human Fas ligand-expressing COS cells
binding result [4]: binds
